Measurements as given in PMC8487046, “Insights into the ligand binding specificity of SREC‐II (scavenger receptor expressed by endothelial cells)” (FEBS Open Bio, 2021).

B1: SREC‐II(44‐442), extracellular domain of scavenger receptor expressed by endothelial cells II (domain or fragment)
chain: QELNPRGRNVCRAPGSQVPTCCAGWRQQGDECGIAVCEGNSTCSENEVCVRPGECRCRHGYFGANCDTKCPRQFWGPDCKELCSCHPHGQCEDVTGQCTCHARRWGARCEHACQCQHGTCHPRSGACRCEPGWWGAQCASACYCSATSRCDPQTGACLCHAGWWGRSCNNQCACNSSPCEQQSGRCQCRERTFGARCDRYCQCFRGRCHPVDGTCACEPGYRGKYCREPCPAGFYGLGCRRRCGQCKGQQPCTVAEGRCLTCEPGWNGTKCDQPCATGFYGEGCSHRCPPCRDGHACNHVTGKCTRCNAGWIGDRCETKCSNGTYGEDCAFVCADCGSGHCDFQSGRCLCSPGVHGPHCNVTCPPGLHGADCAQACSCHEDTCDPVTGACHLETNQRKGLIK
modifications: N‐terminal glutamine 44 converted to pyroglutamate; N‐glycosylated (extra mass of 11.3 kDa)
notes: SREC-II (encoded by SCARF2), extracellular moiety; 3 amino acids (Leu-Ile-Lys) between Gly442 and the 8 His residues; also called SREC‐II ectodomain; soluble SREC‐II; not shown: His8, C-terminal, kept
B2: recombinant human calreticulin (CRT) (natural protein, UniProt P27797 18-417, looked up)
chain: EPAVYFKEQFLDGDGWTSRWIESKHKSDFGKFVLSSGKFYGDEEKDKGLQTSQDARFYALSASFEPFSNKGQTLVVQFTVKHEQNIDCGGGYVKLFPNSLDQTDMHGDSEYNIMFGPDICGPGTKKVHVIFNYKGKNVLINKDIRCKDDEFTHLYTLIVRPDNTYEVKIDNSQVESGSLEDDWDFLPPKKIKDPDASKPEDWDERAKIDDPTDSKPEDWDKPEHIPDPDAKKPEDWDEEMDGEWEPPVIQNPEYKGEWKPRQIDNPDYKGTWIHPEIDNPEYSPDPSIYAYDNFGVLGLDLWQVKSGTIFDNFLITNDEAYAEEFGNETWGVTKAAEKQMKDKQDEEQRLKEEEEDKKRKEEEEAEDKEDDEDKDEDEEDEEDKEEDEEEDVPGQAKDEL
notes: calreticulin, human; source: recombinant, produced according to published procedures [6, 9]

Assays:
[1] = target: T1, complement C1q, purified human (human, UniProt P02745 23-245; P02746 28-253; P02747 29-245); assay: SPR; C1q immobilized (18 700 RU, CM5, amine coupling; BSA as reference surface), serially diluted SREC-II(44-442) injected; TBS-Ca-P; 20 µL/min; 25 °C; global fit, 1:1 Langmuir model; apparent KD; settings: both partners purified
T1 construct: MW used: 459 300 g/mol; source: purified human C1q, prepared as described previously [8]; copies: + +

[2] = target: B1; assay: SPR; SREC-II(44-442) immobilized (1973 RU, CM5, amine coupling), CRT injected at five increasing concentrations in single cycle kinetics mode; TBS-Ca-P; 30 µL/min; 25 °C; global fit, two-state reaction model; apparent KD; settings: both partners purified

T1 sequence (P02745 23-245, chain 1 of 3): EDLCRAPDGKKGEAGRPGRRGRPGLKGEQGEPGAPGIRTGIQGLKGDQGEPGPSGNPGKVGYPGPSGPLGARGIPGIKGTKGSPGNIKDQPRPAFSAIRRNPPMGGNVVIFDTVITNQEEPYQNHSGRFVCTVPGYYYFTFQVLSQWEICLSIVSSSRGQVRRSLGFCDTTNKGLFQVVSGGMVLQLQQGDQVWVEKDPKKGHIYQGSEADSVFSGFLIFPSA
T1 sequence (P02746 28-253, chain 2 of 3): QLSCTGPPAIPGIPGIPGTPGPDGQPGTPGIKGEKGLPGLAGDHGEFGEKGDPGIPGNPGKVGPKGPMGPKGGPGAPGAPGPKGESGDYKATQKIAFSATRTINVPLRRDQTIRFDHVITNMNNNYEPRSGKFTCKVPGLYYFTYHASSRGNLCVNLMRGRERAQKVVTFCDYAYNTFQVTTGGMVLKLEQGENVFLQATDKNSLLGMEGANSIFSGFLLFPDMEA
T1 sequence (P02747 29-245, chain 3 of 3): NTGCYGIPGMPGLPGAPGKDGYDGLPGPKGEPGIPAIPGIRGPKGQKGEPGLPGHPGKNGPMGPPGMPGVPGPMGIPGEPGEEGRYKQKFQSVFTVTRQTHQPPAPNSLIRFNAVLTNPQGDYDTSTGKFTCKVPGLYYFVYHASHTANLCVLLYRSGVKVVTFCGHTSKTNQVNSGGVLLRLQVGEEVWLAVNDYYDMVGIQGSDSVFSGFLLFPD

Kd [1]	koff [1]	kon [1]	Kd [2]	Binder
45 nM	0.001 s⁻¹	20000 M⁻¹ s⁻¹		B1
			290 nM	B2
